The values below come from article PMC8287583, “Biochemical and Phylogenetic Characterization of a Novel NADP^+-Specific Isocitrate Dehydrogenase From the Marine Microalga Phaeodactylum tricornutum” (Frontiers in Molecular Biosciences, 2021).

In general, stoichiometry N refers to a count of units in the complex or per binding partner. The Km is the substrate concentration at which the rate is half of its maximum. Broadly, the kcat is the maximal rate divided by the concentration of active sites. As usually defined, the kcat/Km is the second-order rate constant that governs catalysis at low substrate concentration.

Data set [1] concerns the target PtIDH2 A718P mutant (Phaeodactylum tricornutum CCAP 1055/1). Put plainly: SEC; mutant forms of PtIDH2, Superdex 200 (10/300), 0.5 ml/min; salt of the buffer not stated for this panel. Background: Size exclusion chromatography separates by hydrodynamic size, large species first.
Data set [2] deals with PtIDH2 L742F mutant (Phaeodactylum tricornutum CCAP 1055/1). The data set is described as above.
For data set [3], the target named is Phaeodactylum tricornutum NADP+-specific isocitrate dehydrogenase 2 (PtIDH2), mature form without the signal and transit peptide (Phaeodactylum tricornutum CCAP 1055/1). In words: SEC-MALS; Superdex 200 (10/300) Increase, 0.5 ml/min, 20 mM Tris-HCl, 10% glycerol, 300 mM NaCl, pH 7.5.
The target is the same in data set [4]. Put plainly: SEC; Superdex 200 (10/300) Increase, 0.5 ml/min, 20 mM Tris-HCl, 10% glycerol, pH 7.5, 1,000 mM NaCl (high salt); sample incubated in that buffer before chromatography; tetramer to dimers.
Data set [5] shares this target. Put plainly: SEC; Superdex 200 (10/300) Increase, 0.5 ml/min, 20 mM Tris-HCl, 10% glycerol, pH 7.5, 300 mM NaCl (low salt); calibrated with five protein standards.
Data set [6] has as its target PtIDH2 V609L mutant (Phaeodactylum tricornutum CCAP 1055/1). In words: SEC; mutant forms of PtIDH2, Superdex 200 (10/300), 0.5 ml/min; salt of the buffer not stated for this panel.
Substrate in data set [7]: O=C(O)CC(C(=O)O)C(O)C(=O)O
Put plainly: purified protein. In kind it is biochemical, Phaeodactylum tricornutum. As to conditions: Mn2+ 2.0 mM, 0.5 mM NADP+ fixed, 50 mM Tris-HCl pH 8.0, 25 °C, DL-isocitrate used.

Substrate in data set [8]: NC(=O)c1ccc[n+]([C@@H]2O[C@H](COP(=O)(O)OP(=O)(O)OC[C@H]3O[C@@H](n4cnc5c(N)ncnc54)[C@H](OP(=O)(O)O)[C@@H]3O)[C@@H](O)[C@H]2O)c1
Put plainly: purified protein. In kind it is biochemical, Phaeodactylum tricornutum. As to conditions: 50 mM Tris-HCl pH 8.0, 25 °C.

Substrate in data set [9]: NC(=O)c1ccc[n+]([C@@H]2O[C@H](COP(=O)(O)OP(=O)(O)OC[C@H]3O[C@@H](n4cnc5c(N)ncnc54)[C@H](O)[C@@H]3O)[C@@H](O)[C@H]2O)c1
Put plainly: purified protein. In kind it is biochemical, Phaeodactylum tricornutum. As to conditions: DL-isocitrate, 50 mM Tris-HCl pH 8.0, 25 °C, metal not given (wild-type is the Mn2+ value).

[10] abbreviates: Mn2+ 2.0 mM, 1.0 mM DL-isocitrate fixed.
Where [11] appears, read: DL-isocitrate, metal not given (wild-type is the Mn2+ value).

As for PtIDH2 A718P mutant (enzyme), the stoichiometry N in data set [1] was 4.

In the case of PtIDH2 L742F mutant (enzyme), the stoichiometry N in data set [2] is 4.

With “Phaeodactylum tricornutum NADP+-specific isocitrate dehydrogenase 2 (PtIDH2), mature form without the signal and transit peptide (enzyme)”, the stoichiometry N in [3] was 4; in data set [4], 2; in [5] it was 4.

Regarding PtIDH2 V609L mutant (enzyme), the stoichiometry N in [6] was determined as 4.

B1: PtIDH2 (Phaeodactylum tricornutum CCAP 1055/1) (protein)
chain: PPTSNHRHQPLEHARGSILYTETDEAPALATFSLYPVISKFSALANVDIVPCDISVAGRVLAAFPECLKPSQRVPDNLSYLGKKALEADCAIVKLPNISAPLNQLLECVNELRHKGYDVPLYPHEPSNVEETDVKHRYDKLMGSAVNPVLREGNSDRRVAAPVKAYAQKNPHRMGLWSKASRTHVAHMETGDFYETEQSAVMALPTSVSIVLATKNEGEIVLKAETPLEEGEVVDASRMSVKSLRDFYEREMQDAKDSELMLSLHLKATMMKVSDPIMFGHAIRVFFQDAFDKHGEVLASIGANPNGGLGSVYETIKSKLPADQAATIQADFEACFEDRPWLAMVDSDKGITNLHAPNDIIIDASMPVVVRDSGKMWNKLGELEDVKCLIPDRCYATMYQEVLSYVKTKGQFDVATMGSVANVGLMAKKAEEYGSHDKTFEIPSDGRVVVKDNNTGEVYFEHVVNAGDVWRMCQTKDVAIRDWVRLAVERARATGDRTIFWLDKRRAHDASLIKKVNTYLKDHDTDGLDISIMRPVDAVRISMERATDGKNTISVTGNVLRDYLTDLFPILELGTSAKMLSIVPLLAGGGLYETGAGGSAPKHVQQFVKEGHLRWDSLGEYLALAVALEGLADTAGNPKAKILGDCLNKAVGRILTNRKSPSRVVNQIDNRATNFYVSLYWADFLQQEDPSYKAIFESLTENRGKIVEEFSQCQGTAVDLGGYYLFDPAKTKAAMNPSPTLNKILSSFGPDMN
notes: mature form without putative signal and transit peptide (residues 1-58 of 811 removed), 753 residues, codon-optimized, 6xHis tag from pET-28b (NdeI/XhoI), E. coli Rosetta (DE3); ~80 kDa subunit (theoretical ~82 kDa), ~320 kDa homotetramer; N-term of insert after Met: FRSSTVL (from primer); C-term SSFGPDMN (from primers)
Regarding B1, in data set [7], the Michaelis constant (Km) was 42.69 ± 8.2 µM. Besides, in [8] (setting [10]), the Km came to 37.37 ± 4.02 µM, the kcat was determined as 119 ± 11 s⁻¹ and the kcat/Km turned out to be 3.22e+06 M⁻¹ s⁻¹.

B2: PtIDH2 (Phaeodactylum tricornutum CCAP 1055/1; H661L/R672D/R721S) (protein)
chain: PPTSNHRHQPLEHARGSILYTETDEAPALATFSLYPVISKFSALANVDIVPCDISVAGRVLAAFPECLKPSQRVPDNLSYLGKKALEADCAIVKLPNISAPLNQLLECVNELRHKGYDVPLYPHEPSNVEETDVKHRYDKLMGSAVNPVLREGNSDRRVAAPVKAYAQKNPHRMGLWSKASRTHVAHMETGDFYETEQSAVMALPTSVSIVLATKNEGEIVLKAETPLEEGEVVDASRMSVKSLRDFYEREMQDAKDSELMLSLHLKATMMKVSDPIMFGHAIRVFFQDAFDKHGEVLASIGANPNGGLGSVYETIKSKLPADQAATIQADFEACFEDRPWLAMVDSDKGITNLHAPNDIIIDASMPVVVRDSGKMWNKLGELEDVKCLIPDRCYATMYQEVLSYVKTKGQFDVATMGSVANVGLMAKKAEEYGSHDKTFEIPSDGRVVVKDNNTGEVYFEHVVNAGDVWRMCQTKDVAIRDWVRLAVERARATGDRTIFWLDKRRAHDASLIKKVNTYLKDHDTDGLDISIMRPVDAVRISMERATDGKNTISVTGNVLRDYLTDLFPILELGTSAKMLSIVPLLAGGGLYETGAGGSAPKLVQQFVKEGHLDWDSLGEYLALAVALEGLADTAGNPKAKILGDCLNKAVGRILTNRKSPSSVVNQIDNRATNFYVSLYWADFLQQEDPSYKAIFESLTENRGKIVEEFSQCQGTAVDLGGYYLFDPAKTKAAMNPSPTLNKILSSFGPDMN
notes: as for B1
Regarding B2, in [9], the Michaelis constant (Km) was 5,825 ± 307 μM, the kcat came out at 7.67 ± 1.04 s⁻¹ and the kcat/Km was determined as 1300 M⁻¹ s⁻¹. Further, in [8] (setting [11]), the Km is on record as 2,704 ± 142.8 μM, the kcat stood at 1.01 ± 0.07 s⁻¹ and the kcat/Km came out at 400 M⁻¹ s⁻¹.

B3: PtIDH2 (Phaeodactylum tricornutum CCAP 1055/1; H661L/K660T/R672D/R721S) (protein)
chain: PPTSNHRHQPLEHARGSILYTETDEAPALATFSLYPVISKFSALANVDIVPCDISVAGRVLAAFPECLKPSQRVPDNLSYLGKKALEADCAIVKLPNISAPLNQLLECVNELRHKGYDVPLYPHEPSNVEETDVKHRYDKLMGSAVNPVLREGNSDRRVAAPVKAYAQKNPHRMGLWSKASRTHVAHMETGDFYETEQSAVMALPTSVSIVLATKNEGEIVLKAETPLEEGEVVDASRMSVKSLRDFYEREMQDAKDSELMLSLHLKATMMKVSDPIMFGHAIRVFFQDAFDKHGEVLASIGANPNGGLGSVYETIKSKLPADQAATIQADFEACFEDRPWLAMVDSDKGITNLHAPNDIIIDASMPVVVRDSGKMWNKLGELEDVKCLIPDRCYATMYQEVLSYVKTKGQFDVATMGSVANVGLMAKKAEEYGSHDKTFEIPSDGRVVVKDNNTGEVYFEHVVNAGDVWRMCQTKDVAIRDWVRLAVERARATGDRTIFWLDKRRAHDASLIKKVNTYLKDHDTDGLDISIMRPVDAVRISMERATDGKNTISVTGNVLRDYLTDLFPILELGTSAKMLSIVPLLAGGGLYETGAGGSAPTLVQQFVKEGHLDWDSLGEYLALAVALEGLADTAGNPKAKILGDCLNKAVGRILTNRKSPSSVVNQIDNRATNFYVSLYWADFLQQEDPSYKAIFESLTENRGKIVEEFSQCQGTAVDLGGYYLFDPAKTKAAMNPSPTLNKILSSFGPDMN
notes: as for B1
On to B3, for which, in data set [9], the Km was 11,479 ± 299 μM, the kcat was 2.25 ± 0.18 s⁻¹ and the kcat/Km was determined as 200 M⁻¹ s⁻¹.

B4: PtIDH2 (Phaeodactylum tricornutum CCAP 1055/1; H661L/R672D) (protein)
chain: PPTSNHRHQPLEHARGSILYTETDEAPALATFSLYPVISKFSALANVDIVPCDISVAGRVLAAFPECLKPSQRVPDNLSYLGKKALEADCAIVKLPNISAPLNQLLECVNELRHKGYDVPLYPHEPSNVEETDVKHRYDKLMGSAVNPVLREGNSDRRVAAPVKAYAQKNPHRMGLWSKASRTHVAHMETGDFYETEQSAVMALPTSVSIVLATKNEGEIVLKAETPLEEGEVVDASRMSVKSLRDFYEREMQDAKDSELMLSLHLKATMMKVSDPIMFGHAIRVFFQDAFDKHGEVLASIGANPNGGLGSVYETIKSKLPADQAATIQADFEACFEDRPWLAMVDSDKGITNLHAPNDIIIDASMPVVVRDSGKMWNKLGELEDVKCLIPDRCYATMYQEVLSYVKTKGQFDVATMGSVANVGLMAKKAEEYGSHDKTFEIPSDGRVVVKDNNTGEVYFEHVVNAGDVWRMCQTKDVAIRDWVRLAVERARATGDRTIFWLDKRRAHDASLIKKVNTYLKDHDTDGLDISIMRPVDAVRISMERATDGKNTISVTGNVLRDYLTDLFPILELGTSAKMLSIVPLLAGGGLYETGAGGSAPKLVQQFVKEGHLDWDSLGEYLALAVALEGLADTAGNPKAKILGDCLNKAVGRILTNRKSPSRVVNQIDNRATNFYVSLYWADFLQQEDPSYKAIFESLTENRGKIVEEFSQCQGTAVDLGGYYLFDPAKTKAAMNPSPTLNKILSSFGPDMN
notes: as for B1
In the case of B4, in data set [9], the Michaelis constant (Km) is on record as 10,271 ± 1,448 μM, the kcat worked out at 7.22 ± 0.6 s⁻¹ and the kcat/Km was 700 M⁻¹ s⁻¹. In data set [8] (setting [11]), the Km is reported as 47,650 ± 8,344 μM, the kcat was determined as 22.1 ± 5.5 s⁻¹ and the kcat/Km came out at 500 M⁻¹ s⁻¹.
